Reference: the Human Domainome abundance scans (Beltran et al. 2025)
± gives the uncertainty stated by the source.

B1: Telomeric repeat-binding factor 2, residues 489 to 542; numbered along this chain, Q15554 (parent)
chain: KQKWTVEESEWVKAGVQKYGEGNWAAISKNYPFVNRTAVMIKDRWRTMKRLGMN

Variants of: B1
Experiment: abundance fitness (aPCA) (normalised: wild type 0, dead -1); higher = more abundant; growth selection in yeast, the domain comes from the species named
Conditions: Homo sapiens

Abundance fitness: each site, then its substitutions
Y31: N -0.539 ± 0.056
G15: F -0.888 ± 0.34, N -0.485 ± 0.1, E -0.758 ± 0.21, L -0.503 ± 0.082, M -0.934 ± 0.38, K -0.657 ± 0.23
E8: Q -0.566 ± 0.19, L -0.19 ± 0.062, M -0.238 ± 0.12, W -0.153 ± 0.048, S -0.65 ± 0.064
R50: K 0.178 ± 0.11, W -0.253 ± 0.14, Q -0.026 ± 0.043, A 0.007 ± 0.052, L -0.252 ± 0.084, T -0.016 ± 0.046, M 0.007 ± 0.16
W24: R -1.15 ± 0.18, D -0.72 ± 0.2, F -0.642 ± 0.23, K -0.788 ± 0.48, A -0.932 ± 0.49, P -0.89 ± 0.36, S -0.226 ± 0.15, V -1.08 ± 0.23
G52: A -0.304 ± 0.085, F -0.223 ± 0.059, R -0.119 ± 0.059, H -0.215 ± 0.13, D -0.011 ± 0.13, K -0.149 ± 0.13
N30: C -0.402 ± 0.099, Q -0.092 ± 0.18, F -0.422 ± 0.2, W -0.431 ± 0.092, Y -0.284 ± 0.082, A -0.042 ± 0.071, K -0.16 ± 0.088, S -0.113 ± 0.058
R44: A -0.236 ± 0.048, L -0.22 ± 0.04, C -0.214 ± 0.054, K -0.124 ± 0.049, H 0.125 ± 0.045, M -0.234 ± 0.076, I -0.498 ± 0.081
G20: L -1.06 ± 0.24, A -1.11 ± 0.29, S -0.488 ± 0.1, Q -0.587 ± 0.33, T -0.99 ± 0.17, H -0.126 ± 0.16, E -0.954 ± 0.37
K13: R 0.017 ± 0.066, C -0.534 ± 0.16, V -0.021 ± 0.048, I -0.163 ± 0.16, D -0.332 ± 0.21, Q 0.076 ± 0.084, E -0.25 ± 0.18, Y -0.072 ± 0.11, G -0.184 ± 0.05
A26: Q 0.078 ± 0.15, M -0.493 ± 0.28, D -0.266 ± 0.14, W -0.545 ± 0.16, Y -0.288 ± 0.15, L -0.022 ± 0.082, V -0.025 ± 0.043
V6: R 0.03 ± 0.054, K 0.171 ± 0.048
W45: A -0.691 ± 0.06, S -0.933 ± 0.18, R -0.953 ± 0.16, V -0.866 ± 0.089, C -0.81 ± 0.13, F -0.747 ± 0.2, Q -0.914 ± 0.094, Y -0.318 ± 0.1, L -0.815 ± 0.087, K -1.09 ± 0.14
Q17: R -0.2 ± 0.082, W -0.376 ± 0.1, S -0.087 ± 0.079, I -0.066 ± 0.15, P -0.63 ± 0.26, N -0.295 ± 0.42, V -0.244 ± 0.085, A -0.031 ± 0.088, E -0.441 ± 0.067
V12: S -0.356 ± 0.054, C -0.362 ± 0.17, H -1.02 ± 0.24, Q -0.895 ± 0.17, W -0.744 ± 0.13, R -0.682 ± 0.14
K29: V -0.066 ± 0.08, P -0.626 ± 0.23, W -0.54 ± 0.13, H -0.042 ± 0.23
T37: V -0.461 ± 0.085, N -0.614 ± 0.16, P -0.404 ± 0.12, L -0.256 ± 0.054, C -0.724 ± 0.14, K -0.789 ± 0.12, D -0.247 ± 0.082, G -0.668 ± 0.063
V16: S -0.563 ± 0.085, W -0.765 ± 0.094, I -0.446 ± 0.2, H -0.071 ± 0.28, L -0.696 ± 0.19
I27: K -0.757 ± 0.09, V -0.545 ± 0.13, P -0.87 ± 0.41, G -0.901 ± 0.11, H -0.235 ± 0.26, A -0.862 ± 0.24, F -0.606 ± 0.35, W -0.919 ± 0.24, E -0.938 ± 0.26, S -1.12 ± 0.23
N23: V -0.27 ± 0.092, D -0.527 ± 0.26, I -0.354 ± 0.23, W -0.39 ± 0.26, E -0.801 ± 0.36, K 0.133 ± 0.11
E21: Y -0.123 ± 0.14, K -0.44 ± 0.075, M -0.829 ± 0.26, A -0.314 ± 0.05, F -0.1 ± 0.12, G -0.389 ± 0.084, S -0.323 ± 0.085, T -0.478 ± 0.064, R -0.704 ± 0.12
T5: L -0.75 ± 0.13, M -0.21 ± 0.088, W -0.631 ± 0.26, R -0.557 ± 0.051, G -0.421 ± 0.14
M48: C -0.912 ± 0.28, K -0.978 ± 0.44
Q2: L -0.017 ± 0.067, H 0.518 ± 0.13, S -0.175 ± 0.14, E 0.254 ± 0.36, D 0.184 ± 0.07, G -0.163 ± 0.068
K42: G -0.309 ± 0.069, R 0.035 ± 0.041, V -0.77 ± 0.082, W -0.653 ± 0.13, M -0.207 ± 0.057, S -0.16 ± 0.076, F -0.544 ± 0.27
I41: R -1.16 ± 0.15, D -0.673 ± 0.16, A -1.02 ± 0.12
A14: Q -0.189 ± 0.17, N -0.276 ± 0.07, H -0.209 ± 0.24, F -0.4 ± 0.21
